# ± gives the uncertainty stated by the source.
# Test: amyloid nucleation score (Sup35N fusion, yeast selection) (log enrichment); library NNK2; higher = more nucleation; inactive = no reads after selection
# In short: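 Nucleation score is defined as the DiMSum log enrichment of output over input reads, with centring on the mode score of non-aggregating sequences. A minimum of 100 input reads was required for each sequence. Reads came from Illumina sequencing of plasmid inserts from psi-negative yeast expressing Sup35N fused to peptides of 20 random codons, induced with 100 μM copper sulfate for 24 hours and grown 7 days at 30°C on medium lacking adenine and uracil.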
row,Substance,amyloid nucleation score
1,SILHSPLSVVYASNISCLF,7.169 ± 0.066
2,GCGFFDFSVSWL,-1.24 ± 0.78
3,RFSYFFHVLMRGRNYVQATG,inactive
4,IVGNGRMCLRELSRFCFVRC,1.04 ± 0.28
5,SCQLQDKLMLS,0.999 ± 0.16
6,QYGHCAPDFGSTLLGISST,-0.601 ± 0.39
7,YDLPFYAKEHGLPFVQWGNW,0.261 ± 0.22
8,MSSASQILAHDYQNSYG,-0.383 ± 0.32
9,NTTMWGHVYMHLANMYTEFC,inactive
10,IGIIYFIARFAVVPRSGIRQ,-0.114 ± 1
11,GKILVAFLWPISCVR,0.037 ± 0.65
12,CFSRMRRTEW,-0.142 ± 0.23
13,SGYSPSLFCKVFPWANELCS,-1.12 ± 1.1
14,RTVTNEGTCFNGWLCYAREG,10.15 ± 0.063
15,GMVEAR,0.095 ± 0.46
16,SRLAY,inactive
17,YCFEADVARMIQVFLVFCAS,0.259 ± 0.25
18,SGYFFPRL,-0.73 ± 1.1
19,MRSYRLYLIPFHFLGWLINS,inactive
20,CGVVSLCSGWSLMYDRGWWG,10.2 ± 0.054
21,GEPSCATCITVCLVLLSTQM,6.48 ± 0.081
22,VYMKKINSFITMMSVHGNCS,5.11 ± 0.068

row,Substance,amyloid nucleation score
1,YLSVPSGQSGGDGFNDESSV,inactive
2,RGSSALDE,0.382 ± 0.35
3,TWQVMRRYLENPDGSL,-1.03 ± 0.62
4,CFISQILEFCCSFIFSRDFF,0.286 ± 0.27
5,GTPVSLNFVLESRTRYQMGA,inactive
6,RPQKSSARRIVPFMMFWLGN,0.426 ± 0.36
7,YHTSQLYWLLRCQSSFNSWG,2.48 ± 0.079
8,DSSYVSVHRFCNFGYLIFCF,7.734 ± 0.064
9,VCYRSKASILLYGTPGGVRV,-0.184 ± 1.1
10,AVLLNA,0.181 ± 0.34
11,VLPGVSFFTYRFKKF,inactive
12,TNGYSVRLYKGSCVILIGL,5.12 ± 0.092
13,GIIAMHSLPRQIGIVLFIAR,3.3 ± 0.088
14,AEKQVCLAQKFLNLQLIFRW,1.72 ± 0.12
15,MGFLLRLCTYRCVVVIWGSI,-1.08 ± 0.43
16,HVRMK,4.79 ± 0.1
17,TDGELDSPQ,0.165 ± 0.37
18,PCSLLKNWYIEAYTALQNIG,0.383 ± 0.74
19,LSYVWYTQIARPGNSGFNLL,2.12 ± 0.14
20,SNLSLMFLLRVSIGDKKEEE,7.555 ± 0.034
21,RLSLQTVRLPLLYIWDEDSW,3.43 ± 0.15
22,YDCLCFFPWCRLFNSRKSMA,0.34 ± 0.14

row,Substance,amyloid nucleation score
1,VPPSLLYLQTRDSPPEERMM,0.374 ± 0.64
2,IFLKWLYKSFDYNI,0.973 ± 0.23
3,WRSLLVLAFHLRLLYVSSMK,inactive
4,KKAVSACPLEYSVVINISGG,7.985 ± 0.026
5,KHILGQTWHSHCWFHTFEGV,2.26 ± 0.22
6,ILGSFEHSTQGKYSYWGMRG,4.51 ± 0.066
7,GQGDYMRFSDNAGGPYSKLE,1.73 ± 0.24
8,LSPPYYYHMNCLPYNMSIWP,2.39 ± 0.09
9,YYCTKASTLRSGGFRFMPMT,4.9 ± 0.051
10,KRRSNSTILGPINSPRVAEG,-0.258 ± 0.42
11,VALMYFRFQKFDSSSSMHRF,2.5 ± 0.18
12,FFVSGLFANF,1.73 ± 0.2
13,NGGDRVLSFDIIIAGSLVAK,-0.354 ± 0.39
14,SGYDFHVRMTCCIWH,9.166 ± 0.04
15,CARVMLFIMSEMIEFTFYGL,2.89 ± 0.14
16,NQITDMLIFWFVGIRWFYSE,0.679 ± 0.81
17,GVCSGFPFVRFRNIYIRRLA,3.22 ± 0.078
18,YLTRAIIVFIS,3.66 ± 0.062
19,NKVAKLDFFFLKGPAFRNKA,inactive
20,SRRLCVTFAVFGSHKVLLS,inactive
21,LCGAILIIVHYYG,5.446 ± 0.047
22,KQHVRMYWIAALAPMSGRGW,4.448 ± 0.042

row,Substance,amyloid nucleation score
1,MSFWMSTTINRN,1.67 ± 0.1
2,FCLVEVWRIYVVCWPWSVGR,0.743 ± 0.47
3,NWVPLLFDY,inactive
4,ISSMSTLFCLFRGCVGGEYI,-2.18 ± 0.64
5,VSGRDHTNNTGLYAWLHFCY,-0.493 ± 0.63
6,SVFIGVVPNESQCYV,0.069 ± 0.39
7,RLVIGT,2.41 ± 0.11
8,PLIYLSSFYIDCHLWSSFGV,6.806 ± 0.035
9,ARSNFLFRHNILFFVYFITS,-1.48 ± 1.1
10,MQFLFK,-1.33 ± 1.1
11,RPWHDLLNLHLYGRFMYTIG,0.415 ± 0.37
12,RKLRVNWERCFHVSEAGLKV,0.057 ± 1.1
13,ICRGPQSSNCMEAFVQHFTK,0.417 ± 0.42
14,YWLYMVAHAPKSFIE,0.509 ± 0.8
15,IMFICTGRSLTHTD,-0.642 ± 1.1
16,YDQVSFAL,-0.584 ± 0.76
17,GTLPSGICSRKGMPT,0.283 ± 0.28
18,WGQNNAEAFNYALMWVFRVW,2.49 ± 0.11
19,RPWLNRAFDVISYYAIMACR,0.091 ± 0.3
20,YFCSVSRFRVLDSDYYRKGW,-0.817 ± 1.1
